Test results: the supplement of paper PMC10567573

B1: ZNF193 (parent)
chain: QCIECGKSFNRHCNLIRHQKIHTV

Variants of: B1
Assay: protein stability index of a GFP-peptide fusion (GPS, HEK-293T) (PSI 1-6); higher = more stable
Settings: c terminus: a fixed tail appended
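Further: lentivirally expressed fusions sorted by FACS into six bins by GFP to DsRed ratio, PSI derived from sequencing read proportions per bin multiplied by bin number.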

Which protein stability index does the source give for QCIECGKSFNRHCNLIRHQKIPTV [H22P] here?
Its protein stability index is 2.62.

For QCIECGKSFNRHCNLIRHQKIWTV [H22W], which protein stability index is on record?
Its protein stability index is 1.74.

Which protein stability index does the source give for QCIECGKCFNRHCNLIRHQKIHTV [S8C] here?
Its protein stability index is 3.85.

For QCIECGKPFNRHCNLIRHQKIHTV [S8P], which protein stability index is on record?
Its protein stability index is 3.13.

With QCIECGKNFNRHCNLIRHQKIHTV [S8N] as the variant, how does the protein stability index read?
Its protein stability index is 3.47.

For QCIECGKVFNRHCNLIRHQKIHTV [S8V], which protein stability index is on record?
Its protein stability index is 4.35.

For QCIECGKRFNRHCNLIRHQKIHTV [S8R], which protein stability index is on record?
Its protein stability index is 3.77.

For QCIECGKYFNRHCNLIRHQKIHTV [S8Y], which protein stability index is on record?
The protein stability index was 3.43.

With QCIECGKDFNRHCNLIRHQKIHTV [S8D] as the variant, how does the protein stability index read?
Its protein stability index is 3.4.

With QCIECGKAFNRHCNLIRHQKIHTV [S8A] as the variant, how does the protein stability index read?
The protein stability index was 2.84.

With QCIECGKTFNRHCNLIRHQKIHTV [S8T] as the variant, how does the protein stability index read?
Its protein stability index is 3.96.

With QCIECGKSFNRHMNLIRHQKIHTV [C13M] as the variant, how does the protein stability index read?
Its protein stability index is 2.91.

With QCIECGKSFNRHQNLIRHQKIHTV [C13Q] as the variant, how does the protein stability index read?
The protein stability index was 3.32.

With QCIECGKSFNRHANLIRHQKIHTV [C13A] as the variant, how does the protein stability index read?
The protein stability index was 4.31.

With QCIECGKSFNRHRNLIRHQKIHTV [C13R] as the variant, how does the protein stability index read?
Its protein stability index is 3.91.

With QCIECGKSFNRHTNLIRHQKIHTV [C13T] as the variant, how does the protein stability index read?
The protein stability index was 3.29.

For QCIECGKSFNRHDNLIRHQKIHTV [C13D], which protein stability index is on record?
Its protein stability index is 4.1.

With QCIECGKSFNRHYNLIRHQKIHTV [C13Y] as the variant, how does the protein stability index read?
The protein stability index was 3.29.

With QCIECGKSFNRHKNLIRHQKIHTV [C13K] as the variant, how does the protein stability index read?
Its protein stability index is 3.74.

Which protein stability index does the source give for QLIECGKSFNRHCNLIRHQKIHTV [C2L] here?
The protein stability index was 1.63.

For QTIECGKSFNRHCNLIRHQKIHTV [C2T], which protein stability index is on record?
The protein stability index was 1.74.

With QAIECGKSFNRHCNLIRHQKIHTV [C2A] as the variant, how does the protein stability index read?
The protein stability index was 1.66.

Which protein stability index does the source give for QWIECGKSFNRHCNLIRHQKIHTV [C2W] here?
Its protein stability index is 2.04.

For QGIECGKSFNRHCNLIRHQKIHTV [C2G], which protein stability index is on record?
The protein stability index was 2.13.

Which protein stability index does the source give for QPIECGKSFNRHCNLIRHQKIHTV [C2P] here?
Its protein stability index is 1.34.

With QEIECGKSFNRHCNLIRHQKIHTV [C2E] as the variant, how does the protein stability index read?
Its protein stability index is 2.77.

For QCIECGISFNRHCNLIRHQKIHTV [K7I], which protein stability index is on record?
Its protein stability index is 3.08.

For QCIECGQSFNRHCNLIRHQKIHTV [K7Q], which protein stability index is on record?
Its protein stability index is 3.45.

Which protein stability index does the source give for QCIECGFSFNRHCNLIRHQKIHTV [K7F] here?
The protein stability index was 2.37.

With QCIECGTSFNRHCNLIRHQKIHTV [K7T] as the variant, how does the protein stability index read?
Its protein stability index is 2.93.

Which protein stability index does the source give for QCIECGASFNRHCNLIRHQKIHTV [K7A] here?
Its protein stability index is 3.74.

With QCIECGESFNRHCNLIRHQKIHTV [K7E] as the variant, how does the protein stability index read?
Its protein stability index is 3.86.

With QCIECGRSFNRHCNLIRHQKIHTV [K7R] as the variant, how does the protein stability index read?
Its protein stability index is 3.05.

For QCIECGVSFNRHCNLIRHQKIHTV [K7V], which protein stability index is on record?
The protein stability index was 2.44.

Which protein stability index does the source give for QCIECGKSFNRHCNLIRGQKIHTV [H18G] here?
The protein stability index was 2.91.

With QCIECGKSFNRHCNLIRPQKIHTV [H18P] as the variant, how does the protein stability index read?
Its protein stability index is 2.05.

Which protein stability index does the source give for QCIECGKSFNRHCNLIRRQKIHTV [H18R] here?
Its protein stability index is 1.87.

With QCIECGKSFNRHCNLIRQQKIHTV [H18Q] as the variant, how does the protein stability index read?
The protein stability index was 2.24.

Which protein stability index does the source give for QCIECGKSFNRHCNLIRTQKIHTV [H18T] here?
Its protein stability index is 1.66.

For QCIECGKSFNRHCNLIRDQKIHTV [H18D], which protein stability index is on record?
The protein stability index was 1.97.

For QCIECGKSFNRHCNLIRYQKIHTV [H18Y], which protein stability index is on record?
The protein stability index was 1.41.

With YCIECGKSFNRHCNLIRHQKIHTV [Q1Y] as the variant, how does the protein stability index read?
Its protein stability index is 2.99.

For WCIECGKSFNRHCNLIRHQKIHTV [Q1W], which protein stability index is on record?
The protein stability index was 2.3.

With GCIECGKSFNRHCNLIRHQKIHTV [Q1G] as the variant, how does the protein stability index read?
Its protein stability index is 2.45.

With SCIECGKSFNRHCNLIRHQKIHTV [Q1S] as the variant, how does the protein stability index read?
The protein stability index was 3.44.

Which protein stability index does the source give for LCIECGKSFNRHCNLIRHQKIHTV [Q1L] here?
The protein stability index was 3.14.

Which protein stability index does the source give for VCIECGKSFNRHCNLIRHQKIHTV [Q1V] here?
Its protein stability index is 3.21.

With CCIECGKSFNRHCNLIRHQKIHTV [Q1C] as the variant, how does the protein stability index read?
Its protein stability index is 3.26.

Which protein stability index does the source give for QCIECGKSFNRHCNLIRHQKIHNV [T23N] here?
Its protein stability index is 4.08.

Which protein stability index does the source give for QCIECGKSFNRHCNLIRHQKIHHV [T23H] here?
The protein stability index was 3.9.

For QCIECGKSFNRHCNLIRHQKIHCV [T23C], which protein stability index is on record?
Its protein stability index is 3.58.

For QCIECGKSFNRHCNLIRHQKIHFV [T23F], which protein stability index is on record?
The protein stability index was 2.85.

With QCIECGKSFNRHCNLIRHQKIHMV [T23M] as the variant, how does the protein stability index read?
Its protein stability index is 3.33.

For QCIECGKSFNRHCNLIRHQKIHSV [T23S], which protein stability index is on record?
Its protein stability index is 3.68.

Which protein stability index does the source give for QCIECGKSFNRHCNLIRHQKIHQV [T23Q] here?
Its protein stability index is 4.09.

With QCIECGKSFNRHCNLIRHQKIHWV [T23W] as the variant, how does the protein stability index read?
The protein stability index was 2.56.

Which protein stability index does the source give for QCIECGKSFNRHCNLIHHQKIHTV [R17H] here?
The protein stability index was 3.13.

With QCIECGKSFNRHCNLITHQKIHTV [R17T] as the variant, how does the protein stability index read?
The protein stability index was 3.75.

Which protein stability index does the source give for QCIECGKSFNRHCNLIMHQKIHTV [R17M] here?
The protein stability index was 2.95.

For QCIECGKSFNRHCNLISHQKIHTV [R17S], which protein stability index is on record?
The protein stability index was 3.4.

For QCIECGKSFNRHCNLICHQKIHTV [R17C], which protein stability index is on record?
Its protein stability index is 3.57.

For QCISCGKSFNRHCNLIRHQKIHTV [E4S], which protein stability index is on record?
Its protein stability index is 2.75.

For QCIQCGKSFNRHCNLIRHQKIHTV [E4Q], which protein stability index is on record?
Its protein stability index is 3.43.

Which protein stability index does the source give for QCIPCGKSFNRHCNLIRHQKIHTV [E4P] here?
Its protein stability index is 1.39.

Which protein stability index does the source give for QCICCGKSFNRHCNLIRHQKIHTV [E4C] here?
Its protein stability index is 2.54.

Which protein stability index does the source give for QCIFCGKSFNRHCNLIRHQKIHTV [E4F] here?
The protein stability index was 3.94.

With QCIVCGKSFNRHCNLIRHQKIHTV [E4V] as the variant, how does the protein stability index read?
The protein stability index was 3.48.

With QCIEMGKSFNRHCNLIRHQKIHTV [C5M] as the variant, how does the protein stability index read?
Its protein stability index is 1.94.

For QCIEVGKSFNRHCNLIRHQKIHTV [C5V], which protein stability index is on record?
The protein stability index was 2.13.

For QCIEHGKSFNRHCNLIRHQKIHTV [C5H], which protein stability index is on record?
Its protein stability index is 1.98.

With QCIELGKSFNRHCNLIRHQKIHTV [C5L] as the variant, how does the protein stability index read?
Its protein stability index is 1.54.

For QCIEWGKSFNRHCNLIRHQKIHTV [C5W], which protein stability index is on record?
The protein stability index was 2.07.

For QCIEAGKSFNRHCNLIRHQKIHTV [C5A], which protein stability index is on record?
The protein stability index was 2.36.

With QCIEFGKSFNRHCNLIRHQKIHTV [C5F] as the variant, how does the protein stability index read?
Its protein stability index is 1.44.

Which protein stability index does the source give for QCIECGKSFNRHCNLIRHQKAHTV [I21A] here?
Its protein stability index is 4.

Which protein stability index does the source give for QCIECGKSFNRHCNLIRHQKHHTV [I21H] here?
Its protein stability index is 3.77.

For QCIECGKSFNRHCNLIRHQKFHTV [I21F], which protein stability index is on record?
The protein stability index was 3.15.

For QCIECGKSFNRHCNLIRHQKNHTV [I21N], which protein stability index is on record?
Its protein stability index is 3.52.

With QCIECGKSFNRHCNLIRHQKSHTV [I21S] as the variant, how does the protein stability index read?
The protein stability index was 4.

For QCIECGKSFNRHCNLIRHQKDHTV [I21D], which protein stability index is on record?
The protein stability index was 3.93.

With QCIECGKSFNRHCNLIRHQKMHTV [I21M] as the variant, how does the protein stability index read?
The protein stability index was 3.72.

Which protein stability index does the source give for QCIECGKSFNRHCNLIRHQKYHTV [I21Y] here?
The protein stability index was 3.6.

For QCIECGKSFNRHCNLIRHQKPHTV [I21P], which protein stability index is on record?
Its protein stability index is 3.1.

For QCIECGKSFNRHCNLIRHQKWHTV [I21W], which protein stability index is on record?
Its protein stability index is 3.55.

Which protein stability index does the source give for QCIECGKSFNRHCNLIRHQKGHTV [I21G] here?
Its protein stability index is 3.51.

For QCIECGKSFNRHCPLIRHQKIHTV [N14P], which protein stability index is on record?
The protein stability index was 2.25.

For QCIECGKSFNRHCKLIRHQKIHTV [N14K], which protein stability index is on record?
The protein stability index was 3.38.

For QCIECGKSFNRHCQLIRHQKIHTV [N14Q], which protein stability index is on record?
Its protein stability index is 4.31.

Which protein stability index does the source give for QCIECGKSFNRHCCLIRHQKIHTV [N14C] here?
Its protein stability index is 3.43.

With QCIECGKSFNRHCVLIRHQKIHTV [N14V] as the variant, how does the protein stability index read?
Its protein stability index is 2.83.

For QCIECGKSFNRHCWLIRHQKIHTV [N14W], which protein stability index is on record?
Its protein stability index is 2.29.

With QCIECGKSFNRHCHLIRHQKIHTV [N14H] as the variant, how does the protein stability index read?
The protein stability index was 3.44.

With QCIECGKSFNRHCSLIRHQKIHTV [N14S] as the variant, how does the protein stability index read?
The protein stability index was 3.71.

Which protein stability index does the source give for QCIECGKSFNRHCFLIRHQKIHTV [N14F] here?
The protein stability index was 2.32.
